{
  "source": "paper doi:10.1101/2025.05.28.656462",
  "about": "(bioRxiv, 2025)",
  "proteins": {"B1": {"name": "full-length Pseudomonas aeruginosa bacteriophytochrome PaBphP, wild type (FL-PaBphP-D) (natural protein)", "chain": "MTSITPVTLANCEDEPIHVPGAIQPHGALVTLRADGMVLAASENIQALLGFVASPGSYLTQEQVGPEVLRMLEEGLTGNGPWSNSVETRIGEHLFDVIGHSYKEVFYLEFEIRTADTLSITSFTLNAQRIIAQVQLHNDTASLLSNVTDELRRMTGYDRVMAYRFRHDDSGEVVAESRREDLESYLGQRYPASDIPAQARRLYIQNPIRLIADVAYTPMRVFPALNPETNESFDLSYSVLRSVSPIHCEYLTNMGVRASMSISIVVGGKLWGLFSCHHMSPKLIPYPVRMSFQIFSQVCSAIVERLEQGRIAELLRVSTERRLALARRARDADDLFGALAHPDDGIAALIPCDGALVMLGGRTLSIRGDFERQAGNVLQRLQRDPERDIYHTDNWPQPSEDSPDGGDCCGVLAIRFHRQESGWIFWFRHEEVHRIRWGGKPEKLLTIGPSGPRLTPRGSFEAWEEVVRGHSTPWSETDLAIAEKLRLDLMELCLNHAAEVDRMRQRLIAVLGHDLRNPLQSISMAAALLSSSDTRTTELRQHISASSSRMERLVSQILDMSRLQSGIGLTVNPVDTDVSQLVRQIVCETDVAYPGLVIEIAIDPQVRAVVDPDRYAQVAANLLSNARHHGLPGRPVLVTLTRQGDEVCLSVLNETSGLSEAQLANLFEPFKRESADNQRNRNGLGIGLYISQAIAQAHQGRIDVDCRDDVITFCLRLPVRQAETGSSS"}},
  "target": "the molecule itself",
  "test": "SEC",
  "data": [
    {"protein": "B1", "values": [
      {"measurement": "stoichiometry N", "value": 2}
    ]}
  ]
}
